According to patent publication US20230416362A1:

Key:
[1] = target: mTIGIT (ELISA of Table 7) (mouse) (UniProt P86176); experiment: ELISA binding
[2] = target: mTIGIT (ELISA of Table 7) (mouse) (UniProt P86176); experiment: mTIGIT/mCD155 competition ELISA; competitor mCD155

Chain of mTIGIT (ELISA of Table 7) (mouse) (P86176 29-145 limits assumed): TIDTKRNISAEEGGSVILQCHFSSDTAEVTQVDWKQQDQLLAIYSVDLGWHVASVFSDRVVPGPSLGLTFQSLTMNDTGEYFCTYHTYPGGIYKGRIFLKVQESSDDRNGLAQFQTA

EC50 [1]: 0.3 nM
IC50 [2]: 1.5 nM
Substance: 1G9 (Bio X Cell, #BE0150) (antibody)
